The target of one experiment is rbp1a_arath RANBP1A (UniProt Q9LMK7).
For a further experiment, the target named is rbp1b_arath RANBP1B (UniProt Q8RWG8).
Chain of rbp1b_arath RANBP1B (Q8RWG8 whole entry): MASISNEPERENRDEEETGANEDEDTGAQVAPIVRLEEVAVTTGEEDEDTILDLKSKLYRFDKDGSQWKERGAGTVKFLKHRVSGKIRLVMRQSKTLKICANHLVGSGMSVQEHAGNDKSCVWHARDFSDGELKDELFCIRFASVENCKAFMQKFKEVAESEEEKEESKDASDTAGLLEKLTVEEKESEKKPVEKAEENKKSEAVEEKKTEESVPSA

Chain of GTP-binding nuclear protein Ran-1 (Arabidopsis thaliana (Mouse-ear cress)), P41916 T24D (P41916 whole entry T24D): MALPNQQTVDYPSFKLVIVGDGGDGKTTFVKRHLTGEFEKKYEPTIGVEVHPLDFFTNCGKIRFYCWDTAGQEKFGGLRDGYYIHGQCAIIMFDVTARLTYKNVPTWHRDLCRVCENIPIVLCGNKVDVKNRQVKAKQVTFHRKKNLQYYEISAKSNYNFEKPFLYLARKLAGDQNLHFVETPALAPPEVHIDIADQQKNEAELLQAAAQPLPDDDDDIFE
Chain of rbp1a_arath RANBP1A (Q9LMK7 whole entry): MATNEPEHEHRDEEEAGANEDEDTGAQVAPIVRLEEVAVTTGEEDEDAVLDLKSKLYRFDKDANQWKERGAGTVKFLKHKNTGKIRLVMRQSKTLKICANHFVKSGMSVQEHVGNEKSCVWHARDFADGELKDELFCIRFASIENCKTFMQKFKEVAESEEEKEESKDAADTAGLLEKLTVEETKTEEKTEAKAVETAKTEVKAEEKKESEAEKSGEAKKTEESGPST

Consider “GTP-binding nuclear protein Ran-1 (Arabidopsis thaliana (Mouse-ear cress)), P41916 T24D”, for which the “effect of a mutation on the interaction” value with rbp1a_arath RANBP1A and with rbp1b_arath RANBP1B was “disrupting interaction” each time.

The record behind these values is IntAct's records for PubMed 9025305.
